# T1: C2a, P06681
# T1 chain: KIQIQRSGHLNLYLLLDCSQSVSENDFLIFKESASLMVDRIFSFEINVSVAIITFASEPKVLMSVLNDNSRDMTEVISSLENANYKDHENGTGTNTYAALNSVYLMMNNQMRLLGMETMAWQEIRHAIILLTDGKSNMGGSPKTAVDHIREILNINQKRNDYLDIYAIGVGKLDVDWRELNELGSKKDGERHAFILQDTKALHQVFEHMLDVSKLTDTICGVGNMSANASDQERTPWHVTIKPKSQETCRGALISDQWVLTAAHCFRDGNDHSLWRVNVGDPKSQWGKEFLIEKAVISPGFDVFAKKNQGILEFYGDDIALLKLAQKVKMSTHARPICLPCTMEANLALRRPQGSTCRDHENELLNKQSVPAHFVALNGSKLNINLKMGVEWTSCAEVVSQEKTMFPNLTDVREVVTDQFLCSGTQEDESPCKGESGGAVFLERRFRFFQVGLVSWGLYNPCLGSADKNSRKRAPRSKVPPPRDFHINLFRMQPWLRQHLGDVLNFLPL
# T2: human C5a, P01031
# T2 chain: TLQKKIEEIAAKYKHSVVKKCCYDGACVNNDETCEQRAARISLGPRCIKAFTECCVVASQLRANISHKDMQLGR
# T3: C1s, P09871
# T3 chain: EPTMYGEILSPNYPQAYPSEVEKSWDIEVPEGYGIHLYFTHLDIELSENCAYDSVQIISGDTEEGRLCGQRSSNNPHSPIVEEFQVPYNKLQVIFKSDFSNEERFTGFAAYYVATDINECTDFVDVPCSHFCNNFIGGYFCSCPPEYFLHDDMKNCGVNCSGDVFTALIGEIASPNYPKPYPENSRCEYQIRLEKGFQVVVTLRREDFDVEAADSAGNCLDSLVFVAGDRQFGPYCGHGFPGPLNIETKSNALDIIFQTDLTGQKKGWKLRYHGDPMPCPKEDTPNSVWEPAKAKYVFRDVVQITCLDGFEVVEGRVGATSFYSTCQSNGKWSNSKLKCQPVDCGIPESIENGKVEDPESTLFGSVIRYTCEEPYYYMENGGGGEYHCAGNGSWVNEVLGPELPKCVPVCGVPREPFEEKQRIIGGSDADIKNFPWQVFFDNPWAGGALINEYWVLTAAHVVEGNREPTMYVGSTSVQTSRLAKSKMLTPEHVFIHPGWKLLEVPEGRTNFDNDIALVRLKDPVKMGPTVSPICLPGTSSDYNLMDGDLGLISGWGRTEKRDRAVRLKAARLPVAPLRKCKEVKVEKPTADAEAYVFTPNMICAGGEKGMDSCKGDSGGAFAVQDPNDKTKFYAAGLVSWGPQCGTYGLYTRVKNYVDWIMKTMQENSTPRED
# T4: C4-Binding protein, P04003
# T4 chain 1: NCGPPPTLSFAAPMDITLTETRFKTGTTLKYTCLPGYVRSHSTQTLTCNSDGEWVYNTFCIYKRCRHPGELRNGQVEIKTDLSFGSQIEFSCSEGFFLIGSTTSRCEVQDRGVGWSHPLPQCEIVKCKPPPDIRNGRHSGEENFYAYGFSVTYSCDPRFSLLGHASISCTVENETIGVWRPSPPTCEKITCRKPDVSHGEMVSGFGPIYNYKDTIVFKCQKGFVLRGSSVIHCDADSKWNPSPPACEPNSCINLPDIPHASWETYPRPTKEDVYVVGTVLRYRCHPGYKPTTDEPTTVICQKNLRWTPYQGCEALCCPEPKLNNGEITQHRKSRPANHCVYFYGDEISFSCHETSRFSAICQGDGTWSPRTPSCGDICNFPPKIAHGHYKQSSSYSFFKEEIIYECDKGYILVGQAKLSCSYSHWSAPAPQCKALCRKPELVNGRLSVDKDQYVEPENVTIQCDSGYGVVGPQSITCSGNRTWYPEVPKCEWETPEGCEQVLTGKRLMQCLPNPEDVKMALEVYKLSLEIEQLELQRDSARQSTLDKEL
# T4 chain 2: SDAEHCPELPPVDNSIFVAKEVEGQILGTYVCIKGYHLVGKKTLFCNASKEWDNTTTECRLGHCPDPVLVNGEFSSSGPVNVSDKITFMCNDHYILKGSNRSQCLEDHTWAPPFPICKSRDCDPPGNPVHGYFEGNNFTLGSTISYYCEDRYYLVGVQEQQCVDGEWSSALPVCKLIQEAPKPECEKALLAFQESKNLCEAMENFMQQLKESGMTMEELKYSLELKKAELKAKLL
# T5: C1 inhibitor, P05155
# T5 chain: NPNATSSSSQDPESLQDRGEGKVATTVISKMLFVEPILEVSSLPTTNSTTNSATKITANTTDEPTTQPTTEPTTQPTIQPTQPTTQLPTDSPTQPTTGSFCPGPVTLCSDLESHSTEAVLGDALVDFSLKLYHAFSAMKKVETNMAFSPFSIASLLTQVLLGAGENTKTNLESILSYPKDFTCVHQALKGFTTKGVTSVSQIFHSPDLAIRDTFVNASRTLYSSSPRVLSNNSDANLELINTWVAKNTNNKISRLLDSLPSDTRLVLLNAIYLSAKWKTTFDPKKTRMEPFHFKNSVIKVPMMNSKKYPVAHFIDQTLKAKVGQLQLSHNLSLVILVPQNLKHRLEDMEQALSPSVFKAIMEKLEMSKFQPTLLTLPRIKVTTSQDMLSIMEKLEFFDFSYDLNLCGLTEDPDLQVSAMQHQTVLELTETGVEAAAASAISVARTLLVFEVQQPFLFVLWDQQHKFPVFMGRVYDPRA
# B1: PrtV(Pro-B) (protein)
# chain: DTVNGSESVKTEATQASGSSVQDNATAKTTVTTNSNSSNNVSNVQTDTVKEAATSNVDSVASQNQATTAQQAKTTADTADQTVPPTTYKDHVKGNVQTAWDNGYKGQGMVVAVIDSGADTNHKDFSKAPESPAISKEDADKKISELGYGKYASEKFPFVYNYASRDNNWVKDDGPDASEHGQHVAGIIGADGQPNGNERYAVGVAPETQLMMMRVFNDQFADENTDDIAQAIYDAVKLGANVIQMSLGQGVAAANLNDVEQKAVEYATQHGVFVSISASNNGNSASVTGEEVPYKPGGADGNFEPFSSSTVANPGASRNAMTVAAENSVVGAGDDMADFSSWGPLQDFTLKPDVSAPGVSVTSTGNDNRYNTMSGTSMAGPFNAGVAALVMQRLKATTNLNGADLVQATKALIMNTAKPMTQQGYDTPVSPRRQGAGEIDAGAATESPVYVVAADGTSSVSLRKVGDSTQFALTFKNLSDKDQTYTFDDFGGGLTEVRDADTGTFHDVYLAGAHVYGNKTVTVKAGQSATYNFTLSLTGLKENQLVEGWLRFVGNDGQNQLVVPYLAYYGDMTSEDVFDKAANQEGTVYGGNYFVNEDNYPRGVADEDSLKALVNLEGNYNWQQVAKLYQDGKVAFSPNADGKSDLLKPYAFVKQNLKDLKVEVLDKSGKVVRVVADEQGLDKSYYESGVNKDVTLSVSMRNNPNTLAWDGKVYDDKAGEMVNAADGEYTYRYVATLYNDGVNKVQTADYPVVIDTTAPVLSNVKYDAATHTLSFDYKDTGSGFTDYSYAVVKVNDKTFGYKLNDGKNSKFLDAAKTSGTFKAVLGSDTLAALTAAKNALSVAVSDVADNTSTVTLLVNGNNDATTKVSVWNATNGLELDQSSPDYQAATSTYNLRGNATSDFYYNGALVQVDNSGNFVVPVSTSDTAVVFTSDAAGKNVVYKLNTATPKAVFAWQVNNTVKENFGIVLDTVVSNNKDDVVVQAAVTKGDNVEAYARDYFTGAVYKADVKDGLATFHVKVTNNSGRTVLLGWTEVVGPTFNDVQRTSANGVYLGVDTDTENPTPAPAFTSADQLGTNVVQEKADSATIGNPGDLPGHSLKDLTTRADANPDIHFDYLKDNDYNWVGAQAVKDGVYNPSTQVFTLTGKVDPNVKSLVVLGDSYNEDDPVNKVNLNSDGTFSFQFHTAPTSQRPVAYIYTKDDGSTTRGTMELILDTVLPTLSLNNVANLQLDSNGDYQVYTNNKDFSVSGEATDNLDGYRFFFNGDNDYREFHNSGVNFVAEAHQDGSTVTNPYPAYKFSKTFNLADATGETTHVYTLSVVDLTGNTVTRKFYVHY
# B2: PrtI(ProB) (protein)
# chain: AIGETSVQNVKVSVAKNESDSQKFNNSQNLEQKTPQAAAANQNGSQVQNDHTETQLQNQQTTQSQVTQAHTEENNASSIPEPANQADHVKGNVQSAWDQGYKGQNTVVAVIDSGADTSHKDFQTMPSNPKLKQEDVQSKIDQQGYGKYVNEKFPYVYNYADRDNDYIKSDDNNQXNDSPHGQHVSGIIAADGHPEGDQQYVVGVAPEAQLMQLRVFGQFSDEKTDDVARAIYDATNLGADVIQMSLGQGVADQQLTNIEQKAVQYAIDHGVFVSISASNNGNSASVDNPSKVTAKGYGSGSEAGNYEPLNSGTVANPGASKNALTVAAETSGTGKDSDMASFSSWGPLSDFSLKPDLSAPGYQVVSTVNDNQYQTMSGTSMAGPFAAGSAALVIQRLKQTNPELKGAELVAATKALLMNSAKVQTQNGYTTPVSPRRQGAGQIDVGAATANPVYVTAADGTSSLSLRQVDEKTTFTLTFHNLTDQEQSYSFNDLGGGYTEQRDPDSGVFHEVQLAGAHVNGVGNFTLAPKEVKDLQYTLDLQGLNKNQPVEGWLHFTNDKDKSTVVVPYLAYYGDLTSENVFDQNANEEKPDIQGNRFVNENNYPLGVTDQESLKQLVNVDSDYNWQEVAKLYESGKVAFSPNDDHQSDLIKPYAYLKQNVKDLKVEILDAKGNVVRVVSDVQGVDKSYDESGVTKDASLSVSMRDNPDAFEWDGKVYDTKTGQMVTAPDGQYTYRFVATLWNEGPNQKQTADFPVVVDTQAPSLSVKYDSATHTLSGNYEDKGAGFTDYSYVTVQVNDKVFGYKLNEGESGFDNSEKTKGHFNFTLSSDALDALSGSLNKVSVTLSDVANNTTVKTVDVPAVKDQPAVSVWNATEGVEFNKNSKDYNKENDTYTLYGSAAQDFYLNGALVQVRDGKYEVPVKTTTQDLVFSTDQAGKNVLKSFTTFTPKAFFNWQNVDGFDGNFGVNIYSVKTNDPNNAVVQAAVPLGKNVKAYAQDYFTGEVYKGQVENGVATFHVHTSINQGEDGIFKRALLTGWSEVDGPAYNDKQVTSKAGVASSNHLGVYYTTDKVNRKVYTDRADLGVDVQDEAADLSSFGPTAYPGHALADLTTRTDPNPAIHFDYLNDNDTTRFGQNAVTDGYYDSVTKKFTVTGHVDPEVKSLTVLGDSSDENAPQNQVKLGKDGKFSFSFTTENVGQRPVAYIYTDQNGQKVRGTLNVVLDTVAPTLNVDQVNGNELEVKTNNPLFKLSGVVNDNLDGYRLYVNGNNIYREFLNSGYNKLAGLNTDGTDVNPYGPHNFEESFNLNDDNNQPTTHVFTIYVVDQVGNKVEKKIAVNYDPDYVA
# modifications: not fully specified; X: residue not identified in the source
# How the values were obtained:
# C2a, P06681 = biological target: T1, C2a, P06681
# human C5a, P01031 = biological target: T2, human C5a, P01031
# C1s, P09871 = biological target: T3, C1s, P09871
# [1] = biological target: T4, C4-Binding protein, P04003
# C1 inhibitor, P05155 = biological target: T5, C1 inhibitor, P05155
# Properidin, P27918, sequence (P27918 28-469): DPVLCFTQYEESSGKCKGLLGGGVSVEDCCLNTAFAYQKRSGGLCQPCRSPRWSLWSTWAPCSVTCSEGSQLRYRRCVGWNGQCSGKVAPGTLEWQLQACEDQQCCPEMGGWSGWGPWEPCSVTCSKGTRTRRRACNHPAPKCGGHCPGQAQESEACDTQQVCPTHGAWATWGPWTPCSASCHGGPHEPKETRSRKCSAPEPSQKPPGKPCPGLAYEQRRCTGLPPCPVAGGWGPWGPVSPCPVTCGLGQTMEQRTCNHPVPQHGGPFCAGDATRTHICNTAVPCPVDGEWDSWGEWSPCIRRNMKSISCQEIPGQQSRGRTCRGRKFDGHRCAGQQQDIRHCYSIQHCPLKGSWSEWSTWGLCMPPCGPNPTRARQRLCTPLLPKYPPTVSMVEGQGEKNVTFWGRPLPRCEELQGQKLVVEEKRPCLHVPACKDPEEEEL
Protein,protein cleavage assay (SDS-PAGE) (IP-10),"proteolytic activity (SDS-PAGE) (C2a, P06681)",protein cleavage assay (SDS-PAGE) (IL-3),"protein cleavage assay (SDS-PAGE) (human C5a, P01031)","proteolytic activity (SDS-PAGE) (Properidin, P27918)",protein cleavage assay (SDS-PAGE) (IL-8),"proteolytic activity (SDS-PAGE) (C1s, P09871)",proteolytic activity (SDS-PAGE) [1],protein cleavage assay (SDS-PAGE) (IL-17),"proteolytic activity (SDS-PAGE) (C1 inhibitor, P05155)"
B1,has activities against,None of the complement proteins tested show evidence of breakdown,has activities against,has activities against,None of the complement proteins tested show evidence of breakdown,has activities against,None of the complement proteins tested show evidence of breakdown,None of the complement proteins tested show evidence of breakdown,has activities against,None of the complement proteins tested show evidence of breakdown
B2,has activities against,None of the complement proteins tested show evidence of breakdown,has activities against,has activities against,None of the complement proteins tested show evidence of breakdown,has activities against,None of the complement proteins tested show evidence of breakdown,None of the complement proteins tested show evidence of breakdown,has activities against,None of the complement proteins tested show evidence of breakdown
